B1: SufD (natural protein, Escherichia coli)
chain: MAGLPNSSNALQQWHHLFEAEGTKRSPQAQQHLQQLLRTGLPTRKHENWKYTPLEGLINSQFVSIAGEISPQQRDALALTLDSVRLVFVDGRYVPALSDATEGSGYEVSINDDRQGLPDAIQAEVFLHLTESLAQSVTHIAVKRGQRPAKPLLLMHITQGVAGEEVNTAHYRHHLDLAEGAEATVIEHFVSLNDARHFTGARFTINVAANAHLQHIKLAFENPLSHHFAHNDLLLAEDATAFSHSFLLGGAVLRHNTSTQLNGENSTLRINSLAMPVKNEVCDTRTWLEHNKGFCNSRQLHKTIVSDKGRAVFNGLINVAQHAIKTDGQMTNNNLLMGKLAEVDTKPQLEIYADDVKCSHGATVGRIDDEQIFYLRSRGINQQDAQQMIIYAFAAELTEALRDEGLKQQVLARIGQRLPGGAR
notes: SufD of the Escherichia coli sufABCDSE operon; One SufD per SufBCD complex (1:2:1); also called SufD subunit of the SufBCD complex

One test concerns the target T1, SufB^W287A (Escherichia coli, UniProt P77522 1-495, SufB^W287A).
T1 construct: SufB of the Escherichia coli sufABCDSE operon; source: pBBR-sufAB carrying the mutation, in bacterial extract
T1 sequence: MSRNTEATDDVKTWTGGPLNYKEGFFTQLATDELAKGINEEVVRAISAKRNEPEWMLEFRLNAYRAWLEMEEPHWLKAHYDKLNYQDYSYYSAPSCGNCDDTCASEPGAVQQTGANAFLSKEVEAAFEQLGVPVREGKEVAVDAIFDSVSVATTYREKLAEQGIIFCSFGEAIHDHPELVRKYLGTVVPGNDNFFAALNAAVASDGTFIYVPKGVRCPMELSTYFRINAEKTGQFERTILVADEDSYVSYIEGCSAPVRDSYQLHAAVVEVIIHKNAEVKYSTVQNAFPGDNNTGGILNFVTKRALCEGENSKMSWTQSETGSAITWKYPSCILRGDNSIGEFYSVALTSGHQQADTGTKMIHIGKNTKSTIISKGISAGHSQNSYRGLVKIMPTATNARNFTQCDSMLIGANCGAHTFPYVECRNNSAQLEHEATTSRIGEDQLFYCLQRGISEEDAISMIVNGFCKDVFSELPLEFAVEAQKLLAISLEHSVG
Briefly: SEC; SufBCD complexes co-expressed in E. coli and co-purified on Phenyl FF, Q XL and Sephacryl S-200; eluted from gel filtration at about 160 kDa; subunit composition checked by SDS-PAGE of the purified sample. As to conditions: both partners purified.

For the test “SufD”, the target named is B1. The test is described as above. As to conditions: both partners purified.

2 molecules from PMC5571166, “Mapping the key residues of SufB and SufD essential for biosynthesis of iron-sulfur clusters” (Scientific Reports, 2017) can be followed below.

On to B1, for which the binding result with SufB^W287A is “binds”.

B2: SufC (natural protein, Escherichia coli)
chain: MLSIKDLHVSVEDKAILRGLSLDVHPGEVHAIMGPNGSGKSTLSATLAGREDYEVTGGTVEFKGKDLLALSPEDRAGEGIFMAFQYPVEIPGVSNQFFLQTALNAVRSYRGQETLDRFDFQDLMEEKIALLKMPEDLLTRSVNVGFSGGEKKRNDILQMAVLEPELCILDESDSGLDIDALKVVADGVNSLRDGKRSFIIVTHYQRILDYIKPDYVHVLYQGRIVKSGDFTLVKQLEEQGYGWLTEQQ
notes: SufC of the Escherichia coli sufABCDSE operon; also called SufC subunit of the SufBCD complex
As to B2, the binding result with SufD and with SufB^W287A was “binds” in each case.
